Test results reported in PMC12436594.
pKd: −log10 of the molar value.

Target: PvLDH (lactate dehydrogenase) (Plasmodium vivax) (UniProt Q4PRK9)
Assay: flow cytometry (Ni-NTA beads)
[1] = dUCOTc replaces every T after the 20-nt forward primer

Sequence	pKd [1]	pKd (dUCOTc (COT-carboxylate-modified dU) replaces every T after the 20-nt forward primer)
CACTCACGTCAGTGACATGCAGGTCCTCTCGCCCCCAGTGACTTGCGTGGTCAGAAATTTCGCACCAC [N15 COTc aptamer]	8.25	–
CACTCACGTCAGTGACATGCCAAGCGAAGTTGTGCGCCCGCGTCGTGGTCGTCAGAAATTTCGCACCAC [N5 COTc aptamer]	7.84	–
CACTCACGTCAGTGACATGCGCATTACGCAGCGCTGCGCAGCGAGTACCGGTCAGAAATTTCGCACCAC [N0 COTc aptamer]	–	8.43
